The text below walks through data of patent US20220289859A1.

This assay concerns the target FcγRIIIa (UniProt P08637). Put plainly: SPR as in Example 4; glyco-enriched samples of belantamab.

Chain of FcγRIIIa (P08637 17-208 limits assumed): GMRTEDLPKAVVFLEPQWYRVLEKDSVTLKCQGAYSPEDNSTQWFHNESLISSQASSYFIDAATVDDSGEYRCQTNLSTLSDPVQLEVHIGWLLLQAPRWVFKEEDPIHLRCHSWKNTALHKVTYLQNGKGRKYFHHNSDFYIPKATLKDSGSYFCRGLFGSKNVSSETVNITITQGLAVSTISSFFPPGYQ

With “belantamab deglycosylated with PNGaseF (antibody)”, the Specific FcγRIIIa binding activity was found to be 8%.
